{"source": "patent US20100256070A1", "target": "Diphtheria toxin anti-CD5 ScFv fusion protein bearing a granzyme B cleavage sequence"}
{"protein": "mouse granzyme B (protein) IIGGHEVKPHSRPYMALLSIKDQQPEAICGGFLIREDFVLTAAHCEGSIINVTLGAHNIKEQEKTQQVIPMVKCIPHPDYNPKTFSNDIMLLKLKSKAKRTRAVRPLNLPRRNVNVKPGDVCYVAGWGRMAPMGKYSNTLQEVELTVQKDRECESYFKNRYNKTNQICAGDPKTKRASFRGDSGGPLVCKKVAAGIVSYGYKDGSPPRAFTKVSSFLSWIKKTMKSS", "values": [{"measurement": "in vitro cleavage by granzyme B (gel)", "value": "only a small fraction of DT and PEA fusion proteins was cleaved"}]}
